Laboratory results as given in patent US20050276757.

B1: kinase domain of ZC3 fused to GST (protein)
chain: MGDPAPARSLDDIDLSALRDPAGIFELVEVVGNGTYGQVYKGRHVKTGQLAAIKVMDVTEDEEEEIKQEINMLKKYSHHRNIATYYGAFIKKSPPGNDDQLWLVMEFCGAGSVTDLVKNTKGNALKEDCIAYICREILRGLAHLHAHKVIHRDIKGQNVLLTENAEVKLVDFGVSAQLDRTVGRRNTFIGTPYWMAPEVIACDENPDATYDYRSDIWSLGITAIEMAEGAPPLCDMHPMRALFLIPRNPPPRLKSKKWSKKFIDFIDTCLIKTYLSRPPTEQLLKFPFIRDQPTERQVRIQLKDHIDRSRKKRGEKEETE
B2: purified GST-ZC1 kinase domain (protein)
chain: MANDSPAKSLVDIDLSSLRDPAGIFELVEVVGNGTYGQVYKGRHVKTGQLAAIKVMDVTEDEEEEIKLEINMLKKYSHHRNIATYYGAFIKKSPPGHDDQLWLVMEFCGAGSITDLVKNTKGNTLKEDWIAYISREILRGLAHLHIHHVIHRDIKGQNVLLTENAEVKLVDFGVSAQLDRTVGRRNTFIGTPYWMAPEVIACDENPDATYDYRSDLWSCGITAIEMAEGAPPLCDMHPMRALFLIPRNPPPRLKSKKWSKKFFSFIEGCLVKNYMQRPSTEQLLKHPFIRDQPNERQVRIQLKDHIDRTRKKRGEKDETEYEYSGSEE

Assays:
[1] = molecular target: Flag-tagged Abi-1 expressed from pCMV-Flag-Abi1, Q8IZP0
Chain of Flag-tagged Abi-1 expressed from pCMV-Flag-Abi1, Q8IZP0 (Q8IZP0 whole entry, looked up): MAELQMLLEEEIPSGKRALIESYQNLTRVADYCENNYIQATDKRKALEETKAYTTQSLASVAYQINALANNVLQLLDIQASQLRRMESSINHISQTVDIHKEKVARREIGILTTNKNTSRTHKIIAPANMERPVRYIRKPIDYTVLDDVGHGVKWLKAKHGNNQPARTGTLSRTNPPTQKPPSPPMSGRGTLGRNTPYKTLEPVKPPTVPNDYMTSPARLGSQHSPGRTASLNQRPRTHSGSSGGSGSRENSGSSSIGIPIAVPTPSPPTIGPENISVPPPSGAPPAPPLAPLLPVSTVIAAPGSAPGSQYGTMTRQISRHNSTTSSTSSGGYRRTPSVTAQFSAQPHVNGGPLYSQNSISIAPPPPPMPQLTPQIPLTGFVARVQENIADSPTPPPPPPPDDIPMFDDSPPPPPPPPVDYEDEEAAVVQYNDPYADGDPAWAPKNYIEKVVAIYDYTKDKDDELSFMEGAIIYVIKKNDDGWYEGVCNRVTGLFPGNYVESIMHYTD

[2] = molecular target: p120 catenin expressed from a transfected plasmid (exogenous p120, HA-tagged in Example 1)

Row | Protein | in vitro phosphorylation (32P-ATP, autoradiography) [1] | in vitro phosphorylation (32P-ATP, autoradiography) (Myelin Basic Protein) | in vitro phosphorylation (32P-ATP, autoradiography; gel mobility shift) [2]
1 | B1 | A strongly phosphorylated band corresponding to Abi-1 appears in the sample containing immunoprecipitated Abi-1 and GST-ZC3KD | MBP is known to be a good in vitro substrate for ZC3 and is indeed strongly phosphorylated | 
2 | B2 |  |  | added purified recombinant ZC1 enzyme induced phosphorylation of p120
